Results on two molecules are retold here after article PMC9133466.

In assay [1] the target is amyloid beta (Aβ) of human brain homogenate (human (endogenous in human brain)).
For assay [2], the target named is amyloid beta (Aβ) of APP/PS1 mouse brain homogenate (human).
The target in assay [3] is amyloid beta (Aβ) of human brain homogenate (human (endogenous in human brain)). This is another data set of the same source.
Assay [4] shares this target. This is another data set of the same source.

Where no end group is shown, it is not given here. [ ]: non-standard residue; d: D form.

B1: D1 (peptide)
peptide: [dQ][dS][dH][dY][dR][dH][dI][dS][dP][dA][dQ][dV]-NH2
modifications: N-terminus assumed
SMILES: CC[C@@H](C)[C@@H](NC(=O)[C@@H](Cc1c[nH]cn1)NC(=O)[C@@H](CCCNC(=N)N)NC(=O)[C@@H](Cc1ccc(O)cc1)NC(=O)[C@@H](Cc1c[nH]cn1)NC(=O)[C@@H](CO)NC(=O)[C@H](N)CCC(N)=O)C(=O)N[C@H](CO)C(=O)N1CCC[C@@H]1C(=O)N[C@H](C)C(=O)N[C@H](CCC(N)=O)C(=O)N[C@@H](C(N)=O)C(C)C
In turn, B1 had a reduction of Aβ oligomer signal by sFIDA; human AD brain homogenate AD2 diluted 1:40 (similar at 1:10 and 1:20), 0.31-20 μM D1, 24 h in assay [1] of 27%.

B2: RD2 (peptide)
peptide: [dP][dT][dL][dH][dT][dH][dN][dR][dR][dR][dR][dR]-NH2
modifications: N-terminus assumed
SMILES: CC(C)C[C@@H](NC(=O)[C@H](NC(=O)[C@H]1CCCN1)[C@H](C)O)C(=O)N[C@H](Cc1c[nH]cn1)C(=O)N[C@@H](C(=O)N[C@H](Cc1c[nH]cn1)C(=O)N[C@H](CC(N)=O)C(=O)N[C@H](CCCNC(=N)N)C(=O)N[C@H](CCCNC(=N)N)C(=O)N[C@H](CCCNC(=N)N)C(=O)N[C@H](CCCNC(=N)N)C(=O)N[C@H](CCCNC(=N)N)C(N)=O)[C@H](C)O
In assay [2], B2 had a reduction of Aβ oligomer concentration (Aβ with Aβ) by sFIDA; DGC fraction 10 of APP/PS1 mouse brain homogenate diluted 1:2, 0-50 μM RD2, 0 min to 20 h, 4 °C of 81%. Moreover, in assay [1], the reduction of Aβ oligomer concentration (Aβ with Aβ) by sFIDA; human AD brain homogenate AD2 diluted 1:10, 0.31-20 μM RD2, 24 h was 93%; the reduction of Aβ oligomer concentration (Aβ with Aβ) by sFIDA; human AD brain homogenate AD2 diluted 1:20, 0.31-20 μM RD2, 24 h turned out to be 95%; the reduction of Aβ oligomer concentration (Aβ with Aβ) by sFIDA; human AD brain homogenate AD2 diluted 1:40, 0.31-20 μM RD2, 24 h is 96%. Besides, in assay [3], the reduction of Aβ oligomer concentration (Aβ with Aβ) by sFIDA; DGC fraction 10 of human AD brain homogenate AD2 diluted 1:10, 5 and 20 μM RD2, 0 to 1,380 min is 92%; the reduction of Aβ oligomer concentration (Aβ with Aβ) by sFIDA; DGC fraction 10 of human AD brain homogenate AD6 diluted 1:10, 5 and 20 μM RD2, 0 to 1,380 min is 88%; the reduction of Aβ oligomer concentration (Aβ with Aβ) by sFIDA; pooled DGC fractions 4 to 6 of human AD brain homogenate AD2, 20 μM RD2, 1,380 min is 64%; the reduction of Aβ oligomer concentration (Aβ with Aβ) by sFIDA; pooled DGC fractions 4 to 6 of human AD brain homogenate AD6, 20 μM RD2, 1,380 min came to 62%. In assay [4], this molecule came in with a decrease of Aβ oligomer concentration (Aβ with Aβ) by sFIDA; human AD brain homogenate AD2 diluted 1:20, 1.25-20 μM RD2, 0 to 1,365 min of 93%; a decrease of Aβ oligomer concentration (Aβ with Aβ) by sFIDA; human AD brain homogenate AD4 diluted 1:20, 1.25-20 μM RD2, 0 to about 23 h of 91%; a decrease of Aβ oligomer concentration (Aβ with Aβ) by sFIDA; human AD brain homogenate AD5 diluted 1:20, 1.25-20 μM RD2, 0 to about 23 h of 89%; a decrease of Aβ oligomer concentration (Aβ with Aβ) by sFIDA; human AD brain homogenate AD6 diluted 1:20, 1.25-20 μM RD2, 0 to 1,425 min of 90%. Besides, in assay [4], the reaction rate constant k (1,fast) of Aβ oligomer elimination by RD2 (global double exponential fit, effective RD2 1 and 16 μM); homogenate AD2 (L∗mol^−1∗min^−1) is 2330; the reaction rate constant k (1,fast) of Aβ oligomer elimination by RD2 (global double exponential fit, effective RD2 1 and 16 μM); homogenate AD4 (L∗mol^−1∗min^−1) came out at 2930; the reaction rate constant k (1,fast) of Aβ oligomer elimination by RD2 (global double exponential fit, effective RD2 1 and 16 μM); homogenate AD5 (L∗mol^−1∗min^−1) was 2370; the reaction rate constant k (1,fast) of Aβ oligomer elimination by RD2 (global double exponential fit, effective RD2 1 and 16 μM); homogenate AD6 (L∗mol^−1∗min^−1) was found to be 1280. In assay [4], this molecule came in with a reaction rate constant k (1,slow) of Aβ oligomer elimination by RD2 (global double exponential fit, effective RD2 1 and 16 μM); homogenate AD2 (L∗mol^−1∗min^−1) of 76; a reaction rate constant k (1,slow) of Aβ oligomer elimination by RD2 (global double exponential fit, effective RD2 1 and 16 μM); homogenate AD4 (L∗mol^−1∗min^−1) of 37; a reaction rate constant k (1,slow) of Aβ oligomer elimination by RD2 (global double exponential fit, effective RD2 1 and 16 μM); homogenate AD5 (L∗mol^−1∗min^−1) of 50; a reaction rate constant k (1,slow) of Aβ oligomer elimination by RD2 (global double exponential fit, effective RD2 1 and 16 μM); homogenate AD6 (L∗mol^−1∗min^−1) of 48.
